The results in this text go back to patent US20240181050A1 (COMPASS THERAPEUTICS, published 2024).

For test [1], the target named is T1, human CD137 (recombinant, construct not stated) (human, UniProt Q07011 24-186).
T1 construct: also called huCD137; 4-1BB
Nature of the test: Wasatch SPR kinetics, human CD137. A general note: SPR reads the build-up and loss of mass on a sensor chip optically.

Test [2] has as its target T2, mouse CD137 (equilibrium cell-binding assay) (mouse, UniProt P20334 24-256).
T2 construct: whole, on cells; The cells are not described; also called mCD137
T2 sequence (looked up): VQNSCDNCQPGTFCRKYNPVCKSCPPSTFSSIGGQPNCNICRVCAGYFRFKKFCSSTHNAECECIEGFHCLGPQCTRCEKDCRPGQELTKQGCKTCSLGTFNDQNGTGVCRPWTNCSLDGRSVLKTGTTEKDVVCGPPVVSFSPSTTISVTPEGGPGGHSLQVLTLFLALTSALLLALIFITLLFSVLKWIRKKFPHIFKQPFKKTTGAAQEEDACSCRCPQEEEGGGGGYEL
Nature of the test: equilibrium cell-binding assay, mouse CD137.

The target in test [3] is T3, purified recombinant his tagged human CD137 (human, UniProt Q07011 24-186).
T3 construct: not shown: his tag
Briefly: Carterra MX96 SPRi; antibody printed on chip, his tagged human CD137 injected. How it is done:
The resulting anti-CD137 antibodies from different selection rounds were plotted on kd/kₐ double log plots. Apparent association and dissociation kinetic rate constants (kₐ and kd values) were determined on an SPRi reader (MX96, Carterra) in a running buffer of PBS-T 0.01%. Anti-human CD137 antibodies were covalently printed on a Carboxymethyldextran hydrogel 50 L chip (Xantec bioanalytics) on a CFM (Carterra). Freshly mixed activating reagents (150 […] 0.1 M sulfo-NHS in H2O) were used to activate the surface of the SPR substrate for 7 minutes. Antibodies at 10 mg/ml in acetic acid buffer pH 4.5 were used for printing for 15 minutes. The printed chip was then quenched on SPRi reader (MX96, Carterra) with 1 M ethanolamine for 15 minutes. For kinetics analysis, purified recombinant his tagged human CD137 (0, 2.05, 5.12, 12.8, 32, 80, 200, 500 nM) was injected sequentially. For each concentration, there was 5 minutes of association followed by 10 minutes of dissociation. Data were processed and analyzed in SPR Inspection Tool and Scrubber softwares. The kinetic data were referenced with the interstitial reference spots and double-referenced to a buffer cycle, and then fit globally to a 1:1 binding model to determine their apparent association and dissociation kinetic rate constants (kₐ and kd values). The ratio kd/kₐ was used to derive the KD value of each antigen/mAb interaction, i.e. KD=kd/kₐ.

For test [4], the target named is T4, mouse CD137 (recombinant, ForteBio Octet) (mouse, UniProt P20334 24-187, limits assumed).
T4 construct: also called murine CD137
T4 sequence (looked up): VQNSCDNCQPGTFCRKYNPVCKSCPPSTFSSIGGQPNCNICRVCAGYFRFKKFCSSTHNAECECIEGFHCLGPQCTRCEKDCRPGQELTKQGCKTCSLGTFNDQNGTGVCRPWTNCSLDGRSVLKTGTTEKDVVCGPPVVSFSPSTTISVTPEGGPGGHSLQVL
Briefly: ForteBio Octet (BLI) as described in Example 2. How it is done: Affinity of the CD137 antibodies was determined by measuring their kinetic constants (kₐ, kd, KD) on ForteBio Octet. ForteBio affinity measurements were performed generally as previously described (Estep et al., MAbs. 2013 5(2):270-8). Briefly, ForteBio affinity measurements were performed by loading antibodies (IgGs) on-line onto AHQ sensors. Sensors were equilibrated off-line in assay buffer for 30 minutes and then monitored on-line for 60 seconds for baseline establishment. For avid binding measurement, sensors with loaded IgGs were exposed to 100 nM antigen (human, cyno, or murine CD137) for 3 minutes, afterwards they were transferred to assay buffer for 3 minutes for off-rate measurement. Monovalent binding measurements were obtained by loading human CD137-Fc fusion on AHQ sensors followed by exposure to 200 nM antibody Fab in solution. Kinetics data were fit using a 1:1 binding model in the data analysis software provided by ForteBio (data not shown).
For orientation: In BLI a coated tip is dipped into the sample, and binding shifts an interference pattern.

In general, Kd refers to the constant that tells how readily two partners part at equilibrium.

B1: mAb1 wild type, reference of the CDRH3 alanine scan (antibody, V domains shown)
VH: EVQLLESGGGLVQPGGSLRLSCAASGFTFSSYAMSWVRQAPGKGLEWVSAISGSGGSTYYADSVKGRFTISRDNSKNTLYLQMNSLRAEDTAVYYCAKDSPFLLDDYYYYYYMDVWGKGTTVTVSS
VL: DIQMTQSPSSVSASVGDRVTITCRASQGISSWLAWYQQKPGKAPKLLIYAASSLQSGVPSRFSGSGSGTDFTLTISSLQPEDFATYYCQQGHLFPITFGGGTKVEIK
notes: The derivatives were cloned into an aglyco-IgG1 expression vector (DID-2600); also called WT KD
For the molecule B1, the results for the Kd in test [1] and in test [2] were 1 nM and 11 nM, respectively.

B2: anti-CD137 mAb8 (antibody, V domains shown)
VH: EVQLLESGGGLVQPGGSLRLSCAASGFTFRNYAMSWVRQAPGKGLEWVSAISGSGDTTYYADSVKGRFTISRDNSKNTLYLQMNSLRAEDTAVYYCAKDSPFLLDDYYYYYYMDVWGKGTTVTVSS
VL: DIQMTQSPSSVSASVGDRVTITCRASQGISSWLAWYQQKPGKAPKLLIYAASSLQSGVPSRFSGSGSGTDFTLTISSLQPEDFATYYCQQGHLFPITFGGGTKVEIK
notes: Generated with IgG4 constant regions
With B2, the Kd in test [3] turned out to be 3.2 nM; in test [4], 72 nM.

B3: mAb1 alanine-substituted derivative Y(100D)A (antibody, IgG1, V domains shown)
VH: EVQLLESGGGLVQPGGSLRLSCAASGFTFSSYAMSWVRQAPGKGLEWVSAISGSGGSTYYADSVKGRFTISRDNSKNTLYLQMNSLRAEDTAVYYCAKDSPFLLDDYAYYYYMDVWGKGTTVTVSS
VL: DIQMTQSPSSVSASVGDRVTITCRASQGISSWLAWYQQKPGKAPKLLIYAASSLQSGVPSRFSGSGSGTDFTLTISSLQPEDFATYYCQQGHLFPITFGGGTKVEIK
notes: aglyco-IgG1 vector (DID-2600)
The molecule B3 came in with a Kd in test [2] of 170 nM.

B4: mAb1 alanine-substituted derivative Y(100C)A (antibody, IgG1, V domains shown)
VH: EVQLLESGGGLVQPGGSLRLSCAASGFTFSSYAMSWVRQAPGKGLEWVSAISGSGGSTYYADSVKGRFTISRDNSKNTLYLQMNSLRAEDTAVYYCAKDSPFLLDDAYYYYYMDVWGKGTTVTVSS
VL: DIQMTQSPSSVSASVGDRVTITCRASQGISSWLAWYQQKPGKAPKLLIYAASSLQSGVPSRFSGSGSGTDFTLTISSLQPEDFATYYCQQGHLFPITFGGGTKVEIK
notes: aglyco-IgG1 vector (DID-2600)
Regarding B4, the figures for the Kd in test [1] and in test [2] were 1 nM and 25 nM, respectively.

B5: mAb1 alanine-substituted derivative Y(100G)A (antibody, IgG1, V domains shown)
VH: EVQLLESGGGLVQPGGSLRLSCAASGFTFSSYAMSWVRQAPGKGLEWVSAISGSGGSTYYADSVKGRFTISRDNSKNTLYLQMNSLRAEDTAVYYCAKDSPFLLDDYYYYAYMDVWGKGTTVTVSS
VL: DIQMTQSPSSVSASVGDRVTITCRASQGISSWLAWYQQKPGKAPKLLIYAASSLQSGVPSRFSGSGSGTDFTLTISSLQPEDFATYYCQQGHLFPITFGGGTKVEIK
notes: aglyco-IgG1 vector (DID-2600)
B5: the binding result in test [1] and in test [2] was “no binding” throughout.

B6: anti-CD137 mAb10 (antibody, IgG4, V domains shown)
VH: EVQLLESGGGLVQPGGSLRLSCAASGFTFYGYAMSWVRQAPGKGLEWVAAISGSGDSTYYADSVKGRFTISRDNSKNTLYLQMNSLRAEDTAVYYCAKDSPFLLDDYYYYYYMDVWGKGTTVTVSS
VL: DIQMTQSPSSVSASVGDRVTITCRASQGISSWLAWYQQKPGKAPKLLIYAASSLQSGVPSRFSGSGSGTDFTLTISSLQPEDFATYYCQQGHLFPITFGGGTKVEIK
notes: as for B2
For B6, the figures for the equilibrium dissociation constant (Kd) in test [3] and in test [4] were 20 nM and 8.4 nM, respectively.

B7: mAb1 alanine-substituted derivative L99A (antibody, IgG1, V domains shown)
VH: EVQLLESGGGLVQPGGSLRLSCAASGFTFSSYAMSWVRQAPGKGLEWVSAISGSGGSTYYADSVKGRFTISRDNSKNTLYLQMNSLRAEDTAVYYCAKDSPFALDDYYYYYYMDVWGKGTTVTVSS
VL: DIQMTQSPSSVSASVGDRVTITCRASQGISSWLAWYQQKPGKAPKLLIYAASSLQSGVPSRFSGSGSGTDFTLTISSLQPEDFATYYCQQGHLFPITFGGGTKVEIK
notes: aglyco-IgG1 vector (DID-2600)
Turning to B7, the Kd in test [1] is 2.7 nM; in test [2], 33 nM.

B8: mAb1 alanine-substituted derivative Y(100E)A (antibody, IgG1, V domains shown)
VH: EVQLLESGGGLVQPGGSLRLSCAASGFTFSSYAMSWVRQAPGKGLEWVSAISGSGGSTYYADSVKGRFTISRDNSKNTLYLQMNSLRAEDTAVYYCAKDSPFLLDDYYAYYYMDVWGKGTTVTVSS
VL: DIQMTQSPSSVSASVGDRVTITCRASQGISSWLAWYQQKPGKAPKLLIYAASSLQSGVPSRFSGSGSGTDFTLTISSLQPEDFATYYCQQGHLFPITFGGGTKVEIK
notes: aglyco-IgG1 vector (DID-2600)
Take B8: the binding result in test [1] and in test [2] was “no binding” throughout.

B9: mAb1 alanine-substituted derivative D(100B)A (antibody, IgG1, V domains shown)
VH: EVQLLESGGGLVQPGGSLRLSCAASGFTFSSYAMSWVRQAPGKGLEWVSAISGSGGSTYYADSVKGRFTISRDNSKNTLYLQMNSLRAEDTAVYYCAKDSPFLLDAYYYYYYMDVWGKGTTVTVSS
VL: DIQMTQSPSSVSASVGDRVTITCRASQGISSWLAWYQQKPGKAPKLLIYAASSLQSGVPSRFSGSGSGTDFTLTISSLQPEDFATYYCQQGHLFPITFGGGTKVEIK
notes: aglyco-IgG1 vector (DID-2600)
For the molecule B9, the figures for the Kd in test [1] and in test [2] were 1.3 nM and 54 nM, respectively.

B10: mAb1 alanine-substituted derivative L100A (antibody, IgG1, V domains shown)
VH: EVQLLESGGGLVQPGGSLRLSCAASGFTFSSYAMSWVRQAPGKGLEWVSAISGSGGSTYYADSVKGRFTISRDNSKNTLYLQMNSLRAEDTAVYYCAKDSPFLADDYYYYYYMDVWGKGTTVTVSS
VL: DIQMTQSPSSVSASVGDRVTITCRASQGISSWLAWYQQKPGKAPKLLIYAASSLQSGVPSRFSGSGSGTDFTLTISSLQPEDFATYYCQQGHLFPITFGGGTKVEIK
notes: aglyco-IgG1 vector (DID-2600); Leucine at position 100 is changed to alanine
Consider B10, for which the binding result in test [1] and in test [2] was “no binding” throughout.

B11: mAb1 alanine-substituted derivative S96A (antibody, IgG1, V domains shown)
VH: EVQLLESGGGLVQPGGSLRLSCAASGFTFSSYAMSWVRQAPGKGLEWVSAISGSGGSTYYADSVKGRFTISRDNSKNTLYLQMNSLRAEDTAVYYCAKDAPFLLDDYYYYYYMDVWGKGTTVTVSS
VL: DIQMTQSPSSVSASVGDRVTITCRASQGISSWLAWYQQKPGKAPKLLIYAASSLQSGVPSRFSGSGSGTDFTLTISSLQPEDFATYYCQQGHLFPITFGGGTKVEIK
notes: aglyco-IgG1 vector (DID-2600)
As to B11, the Kd in test [1] came out at 1.8 nM; in test [2], 40 nM.

B12: mAb1 alanine-substituted derivative M(100I)A (antibody, IgG1, V domains shown)
VH: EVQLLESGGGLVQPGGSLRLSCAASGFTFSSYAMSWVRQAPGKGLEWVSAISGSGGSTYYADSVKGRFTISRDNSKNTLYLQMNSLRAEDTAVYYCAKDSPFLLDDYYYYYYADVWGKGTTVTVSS
VL: DIQMTQSPSSVSASVGDRVTITCRASQGISSWLAWYQQKPGKAPKLLIYAASSLQSGVPSRFSGSGSGTDFTLTISSLQPEDFATYYCQQGHLFPITFGGGTKVEIK
notes: aglyco-IgG1 vector (DID-2600)
Regarding B12, the dissociation constant Kd in test [1] came out at 1.8 nM; in test [2] it was 21 nM.

B13: mAb7 (antibody, IgG4, V domains shown)
VH: EVQLLESGGGLVQPGGSLRLSCAASGFTFNYYAMSWVRQAPGKGLEWVSAIDGSGDNTTYADSVKGRFTISRDNSKNTLYLQMNSLRAEDTAVYYCAKDSPFLLDDYYYYYYMDVWGKGTTVTVSS
VL: DIQMTQSPSSVSASVGDRVTITCRASQGISSWLAWYQQKPGKAPKLLIYAASSLQSGVPSRFSGSGSGTDFTLTISSLQPEDFATYYCQQGHLFPITFGGGTKVEIK
On to B13, for which the equilibrium dissociation constant (Kd) in test [3] stood at 6.8 nM; in test [4], 1.2 nM.

B14: mAb1 alanine-substituted derivative D95A (antibody, V domains shown)
VH: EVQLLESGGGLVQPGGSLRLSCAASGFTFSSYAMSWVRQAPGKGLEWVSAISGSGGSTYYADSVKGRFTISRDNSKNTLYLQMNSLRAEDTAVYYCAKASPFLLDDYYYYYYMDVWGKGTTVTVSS
VL: DIQMTQSPSSVSASVGDRVTITCRASQGISSWLAWYQQKPGKAPKLLIYAASSLQSGVPSRFSGSGSGTDFTLTISSLQPEDFATYYCQQGHLFPITFGGGTKVEIK
notes: aglyco-IgG1 vector (DID-2600)
As to B14, the binding result in test [1] and in test [2] was “no binding” each time.

B15: mAb1 alanine-substituted derivative Y(100H)A (antibody, IgG1, V domains shown)
VH: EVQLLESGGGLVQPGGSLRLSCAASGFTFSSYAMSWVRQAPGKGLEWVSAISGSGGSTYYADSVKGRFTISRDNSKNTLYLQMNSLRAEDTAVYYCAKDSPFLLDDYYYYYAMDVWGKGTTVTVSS
VL: DIQMTQSPSSVSASVGDRVTITCRASQGISSWLAWYQQKPGKAPKLLIYAASSLQSGVPSRFSGSGSGTDFTLTISSLQPEDFATYYCQQGHLFPITFGGGTKVEIK
notes: aglyco-IgG1 vector (DID-2600)
With B15, the binding result in test [1] and in test [2] was “no binding” throughout.

B16: mAb9 (antibody, IgG4, V domains shown)
VH: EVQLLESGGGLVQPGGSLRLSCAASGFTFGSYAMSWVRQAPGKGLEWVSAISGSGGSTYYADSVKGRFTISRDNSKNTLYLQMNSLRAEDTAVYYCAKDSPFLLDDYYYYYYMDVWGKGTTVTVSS
VL: DIQMTQSPSSVSASVGDRVTITCRASQGISSWLAWYQQKPGKAPKLLIYAASSLQSGVPSRFSGSGSGTDFTLTISSLQPEDFATYYCQQGHLFPITFGGGTKVEIK
Consider B16, for which the Kd in test [3] amounted to 41.4 nM; in test [4], 6.9 nM.

B17: mAb12 (antibody, IgG4, V domains shown)
VH: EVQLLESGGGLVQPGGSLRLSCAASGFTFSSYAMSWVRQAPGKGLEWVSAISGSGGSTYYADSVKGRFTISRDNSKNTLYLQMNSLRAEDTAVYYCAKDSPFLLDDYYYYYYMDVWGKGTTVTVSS
VL: DIQLTQSPSSLSASVGDRVTITCRASQDIGDWLAWYQQKPGKAPKLLIYKASGLQSGVPSRFSGSGSGTEFTLTISNLQPEDFATYYCQQGNQFPLTFGQGTRLE
As for B17, the Kd stood at 12.1 nM in test [3] and 25.8 nM in test [4].

B18: mAb11 (antibody, IgG4, V domains shown)
VH: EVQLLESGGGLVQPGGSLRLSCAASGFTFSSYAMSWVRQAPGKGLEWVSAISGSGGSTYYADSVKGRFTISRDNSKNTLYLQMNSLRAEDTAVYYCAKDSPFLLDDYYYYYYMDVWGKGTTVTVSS
VL: DIQMTQSPSTLSASVGDRVTITCRASQNIHNWLAWYQQKPGKAPKLLIYKASGLESGVPSRFSGSGSGTEFTLTISSLQPDDFATYYCQQGDRFPLTFGGGTKVEIK
Turning to B18, the Kd in test [3] worked out at 4.1 nM; in test [4] it was 4.8 nM.
